Test results published in patent publication US20240190962A1 (IMMUNOWAKE, published 2024).
Positions count from the first letter of the chain named. Numbers in names are those of the source.

B1: IL-12(E59A/F60A)/anti-PD-1(D100N) (other)
light: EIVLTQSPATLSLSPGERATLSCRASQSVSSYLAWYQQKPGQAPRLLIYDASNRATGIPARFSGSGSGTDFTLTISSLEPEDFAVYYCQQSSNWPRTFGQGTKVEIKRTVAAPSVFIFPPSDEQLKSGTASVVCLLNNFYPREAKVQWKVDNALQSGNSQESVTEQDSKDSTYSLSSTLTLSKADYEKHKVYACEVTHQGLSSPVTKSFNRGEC
heavy 1: QVQLVESGGGVVQPGRSLRLDCKASGITFSNSGMHWVRQAPGKGLEWVAVIWYDGSKRYYADSVKGRFTISRDNSKNTLFLQMNSLRAEDTAVYYCATNNDYWGQGTLVTVSSASTKGPSVFPLAPSSKSTSGGTAALGCLVKDYFPEPVTVSWNSGALTSGVHTFPAVLQSSGLYSLSSVVTVPSSSLGTQTYICNVNHKPSNTKVDKKVEPKSCDKTHTCPPCPAPEKKGGPSVFLFPPKPKDTLMISRTPEVTCVVVDVSHEDPEVKFNWYVDGVEVHNAKTKPREEQYNSTYRVVSVLTVLHQDWLNGKEYKCKVSNKALPAPIEKTISKAKGQPREPQVYVLPPSREEMTKNQVSLLCLVKGFYPSDIAVEWESNGQPENRYMTWPPVLDSDGSFFLYSKLTVDKSRWQQGNVFSCSVMHEALHNHYTQKSLSLSPGK
heavy 2: QVQLVESGGGVVQPGRSLRLDCKASGITFSNSGMHWVRQAPGKGLEWVAVIWYDGSKRYYADSVKGRFTISRDNSKNTLFLQMNSLRAEDTAVYYCATNNDYWGQGTLVTVSSASTKGPSVFPLAPSSKSTSGGTAALGCLVKDYFPEPVTVSWNSGALTSGVHTFPAVLQSSGLYSLSSVVTVPSSSLGTQTYICNVNHKPSNTKVDKKVEPKSCDKPGSGIWELKKDVYVVELDWYPDAPGEMVVLTCDTPEEDGITWTLDQSSEVLGSGKTLTIQVKAAGDAGQYTCHKGGEVLSHSLLLLHKKEDGIWSTDILKDQKEPKNKTFLRCEAKNYSGRFTCWWLTTISTDLTFSVKSSRGSSDPQGVTCGAATLSAERVRGDNKEYEYSVECQEDSACPAAEESLPIEVMVDAVHKLKYENYTSSFFIRDIIKPDPPKNLQLKPLKNSRQVEVSWEYPDTWSTPHSYFSLTFCVQVQGKSKREKKDRVFTDKTSATVICRKNASISVRAQDRYYSSSWSEWASVPCSGGGGSGGGGSGGGGSGGGGSGRNLPVATPDPGMFPCLHHSQNLLRAVSNMLQKARQTLEFYPCTSEEIDHEDITKDKTSTVEACLPLELTKNESCLNSRETSFITNGSCLASRKTSFMMALCLSSIYEDLKMYQVEFKTMNAKLLMDPKRQIFLDQNMLAVIDELMQALNFNSETVPQKSSLEEPDFYKTKIKLCILLHAFRIRAVTIDRVMSYLNASDKTHTCPPCPAPEDEGGPSVFLFPPKPKDTLMISRTPEVTCVVVDVSHEDPEVKFNWYVDGVEVHNAKTKPREEQYNSTYRVVSVLTVLHQDWLNGKEYKCKVSNKALPAPIEKTISKAKGQPREPQVYVYPPSREEMTKNQVSLTCLVKGFYPSDIAVEWESNGQPENNYKTTPPVLDEDGSFALVSKLTVDKSRWQQGNVFSCSVMHEALHNHYTQKSLSLSPGK
B2: IL-12(E59A/F60A)/anti-PD-1(D100G) (other)
light: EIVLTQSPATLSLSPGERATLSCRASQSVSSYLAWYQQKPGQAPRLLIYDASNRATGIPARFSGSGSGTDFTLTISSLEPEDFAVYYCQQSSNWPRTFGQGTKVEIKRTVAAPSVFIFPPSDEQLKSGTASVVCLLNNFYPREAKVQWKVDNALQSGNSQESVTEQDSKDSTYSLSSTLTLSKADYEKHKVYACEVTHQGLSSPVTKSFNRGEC
heavy 1: B1 heavy 1 with N100G
heavy 2: B1 heavy 2 with N100G
B3: IL-12(E59A/F60A)/anti-PD-1(D100R) (other)
light: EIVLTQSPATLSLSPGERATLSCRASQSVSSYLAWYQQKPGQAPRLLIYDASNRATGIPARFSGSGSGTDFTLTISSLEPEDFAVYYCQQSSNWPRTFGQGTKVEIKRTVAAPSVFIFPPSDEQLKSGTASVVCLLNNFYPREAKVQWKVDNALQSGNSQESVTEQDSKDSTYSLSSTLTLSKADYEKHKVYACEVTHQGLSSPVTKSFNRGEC
heavy 1: B1 heavy 1 with N100R
heavy 2: B1 heavy 2 with N100R

Target: human IL-12 receptor complex (IL-12Rβ1, IL-12Rβ2) (human, UniProt P42701 24-662; Q99665 24-862)
Sequence (Q99665 24-862, chain 2 of 2, other chains not shown): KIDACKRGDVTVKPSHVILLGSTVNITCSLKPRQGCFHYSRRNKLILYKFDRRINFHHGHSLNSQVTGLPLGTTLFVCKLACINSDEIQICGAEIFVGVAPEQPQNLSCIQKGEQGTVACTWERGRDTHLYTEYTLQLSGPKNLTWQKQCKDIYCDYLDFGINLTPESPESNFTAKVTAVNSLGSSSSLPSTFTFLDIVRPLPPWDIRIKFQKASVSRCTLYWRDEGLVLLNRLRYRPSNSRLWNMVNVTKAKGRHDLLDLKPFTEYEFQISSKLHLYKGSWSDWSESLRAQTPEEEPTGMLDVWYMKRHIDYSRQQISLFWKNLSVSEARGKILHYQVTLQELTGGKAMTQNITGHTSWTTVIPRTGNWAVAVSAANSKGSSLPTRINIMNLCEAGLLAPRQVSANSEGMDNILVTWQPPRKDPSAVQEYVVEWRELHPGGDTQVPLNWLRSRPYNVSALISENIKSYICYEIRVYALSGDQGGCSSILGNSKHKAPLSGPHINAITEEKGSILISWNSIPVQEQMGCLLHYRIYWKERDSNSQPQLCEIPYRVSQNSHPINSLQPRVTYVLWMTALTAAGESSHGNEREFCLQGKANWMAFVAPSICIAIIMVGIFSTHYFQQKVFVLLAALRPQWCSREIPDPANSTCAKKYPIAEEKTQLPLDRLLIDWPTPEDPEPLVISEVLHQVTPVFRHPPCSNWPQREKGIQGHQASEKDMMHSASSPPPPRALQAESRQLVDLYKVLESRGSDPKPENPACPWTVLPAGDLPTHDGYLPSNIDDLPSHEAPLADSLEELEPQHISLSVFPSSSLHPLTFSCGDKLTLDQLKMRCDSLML
Test: cell-based or functional assay

Row | Binder | IL-12 biological activity, HEK-IL-12 | IL-12 biological activity, HEK-IL-12-PD-1 (high) | IL-12 biological activity, HEK-IL-12-PD-1 (low) | PBMC (IFN-γ ng/ml)
1 | B1 | < 0.2% | 38% | 33% | 820 ng/mL
2 | B2 | < 0.2% | 33% | 17% | 120 ng/mL
3 | B3 | < 0.2% | 10% | 3% | 69 ng/mL
